The record followed here is paper PMC6948192, “Structural Organization and Dynamics of Homodimeric Cytohesin Family Arf GTPase Exchange Factors in Solution and on Membranes” (Structure(London, England:1993), 2019).

By stoichiometry N is commonly meant a count of units in the complex or per binding partner.

Data set [1] deals with the molecule itself. Description: SEC-SAXS; BioCAT 18-ID (APS); samples with 1.2 molar excess of IP4, concentrated to 10-20 mg/ml, Superdex-200 Increase; 20 mM Tris pH 8.0, 150 mM NaCl, 2 mM MgCl2, 0.1% 2-mercaptoethanol, 5% glycerol, 1 μM IP4; peak concentration ∼80 μM (Grp1 14-399), ∼1 mg/mL (Grp1 14-390). A general note: Size exclusion chromatography separates by hydrodynamic size, large species first.

Data set [2] concerns the molecule itself. Kind of data set: SEC-SAXS; ARNOFL, no phosphoinositide head group; BM29 beamline (ESRF), Bio Sec300 HPLC column, 600 μg in 60 μL injected.

B1: Grp1_(14-399), diglycine variant, autoinhibited, in complex with the head group of PIP3 (IP4) (domain or fragment, mouse, UniProt O08967 14-399, looked up)
chain: EDLSLEEREELLDIRRRKKELIDDIERLKYEIAEVMTEIDNLTSVEESKTTQRNKQIAMGRKKFNMDPKKGIQFLIENDLLQSSPEDVAQFLYKGEGLNKTVIGDYLGERDDFNIKVLQAFVELHEFADLNLVQALRQFLWSFRLPGEAQKIDRMMEAFASRYCLCNPGVFQSTDTCYVLSFAIIMLNTSLHNHNVRDKPTAERFITMNRGINEGGDLPEELLRNLYESIKNEPFKIPEDDGNDLTHTFFNPDREGWLLKLGGRVKTWKRRWFILTDNCLYYFEYTTDKEPRGIIPLENLSIREVEDPRKPNCFELYNPSHKGQVIKACKTEADGRVVEGNHVVYRISAPSPEEKEEWMKSIKASISRDPFYDMLATRKRRIANKK
notes: Incubated with a 1.2 molar excess of inositol 1,3,4,5-tetrakisphosphate (IP4) before SEC-SAXS and NS-EM; source: E. coli BL21(DE3), purified (Ni-NTA, HiTrap Q, Superdex-200)
B1: in data set [1], the “stoichiometry N” value worked out at 2.

B2: Full-length ARNO carrying a 3G sequence in the membrane-binding site (ARNOFL) (natural protein, human, UniProt Q99418 1-400, looked up)
chain: MEDGVYEPPDLTPEERMELENIRRRKQELLVEIQRLREELSEAMSEVEGLEANEGSKTLQRNRKMAMGRKKFNMDPKKGIQFLVENELLQNTPEEIARFLYKGEGLNKTAIGDYLGEREELNLAVLHAFVDLHEFTDLNLVQALRQFLWSFRLPGEAQKIDRMMEAFAQRYCLCNPGVFQSTDTCYVLSFAVIMLNTSLHNPNVRDKPGLERFVAMNRGINEGGDLPEELLRNLYDSIRNEPFKIPEDDGNDLTHTFFNPDREGWLLKLGGGRVKTWKRRWFILTDNCLYYFEYTTDKEPRGIIPLENLSIREVDDPRKPNCFELYIPNNKGQLIKACKTEADGRVVEGNHMVYRISAPTQEEKDEWIKSIQAAVSVDPFYEMLAARKKRISVKKKQEQP
notes: Cloned in pET-8c (Antonny et al., 1997); also called Cytohesin-2; source: E. coli, purified (Ni-NTA HisTrap FF, Superdex 200)
Turning to B2, the “stoichiometry N” value in data set [2] was 2.

B3: Grp1_(14-390), constitutively active construct lacking the polybasic motif (domain or fragment, mouse, UniProt O08967 14-390, looked up)
chain: EDLSLEEREELLDIRRRKKELIDDIERLKYEIAEVMTEIDNLTSVEESKTTQRNKQIAMGRKKFNMDPKKGIQFLIENDLLQSSPEDVAQFLYKGEGLNKTVIGDYLGERDDFNIKVLQAFVELHEFADLNLVQALRQFLWSFRLPGEAQKIDRMMEAFASRYCLCNPGVFQSTDTCYVLSFAIIMLNTSLHNHNVRDKPTAERFITMNRGINEGGDLPEELLRNLYESIKNEPFKIPEDDGNDLTHTFFNPDREGWLLKLGGRVKTWKRRWFILTDNCLYYFEYTTDKEPRGIIPLENLSIREVEDPRKPNCFELYNPSHKGQVIKACKTEADGRVVEGNHVVYRISAPSPEEKEEWMKSIKASISRDPFYDMLAT
notes: Grp1 (cytohesin-3), mouse, diglycine splice variant, residues 14-390 (lacks the polybasic region); also called fully active Grp1 dimer; source: E. coli BL21(DE3), purified (Ni-NTA, HiTrap Q, Superdex-200)
On to B3, for which, in data set [1], the “stoichiometry N” value worked out at 2.
